Results taken from publication PMC5963890.
Values joined by “and” are separate entries in the source; they are usually repeats but may differ in a detail not shown here. Equal entries are not always repeated. Blank lines part the entries; values can stand above or below the substance they belong to.

Experiments:
[1] = biological target: G20c portal protein L49C conjugated with maleimide-porphyrin (bacteriophage G20c); test: SEC
[2] = biological target: G20c portal protein L49C single mutant (bacteriophage G20c); test: negative-stain transmission electron microscopy
[3] = biological target: G20c portal protein L49C/V325G/I328G conjugated with maleimide-porphyrin (bacteriophage G20c); test: SEC
[4] = biological target: G20c portal protein L49C/V325G/I328G triple mutant (bacteriophage G20c); test: negative-stain transmission electron microscopy
[5] = biological target: G20c portal protein V325G mutant (bacteriophage G20c); test: crystal structure
[6] = biological target: G20c portal protein V325G/I328G double mutant (bacteriophage G20c); test: X-ray diffraction, self-rotation function

stoichiometry N [4]: 12
Substance: G20c portal protein L49C/V325G/I328G triple mutant (natural protein)

stoichiometry N [6]: 12
Substance: G20c portal protein V325G/I328G double mutant (natural protein)

Further lines, the substance ahead of its results:

Substance: G20c portal protein L49C conjugated with maleimide-porphyrin (natural protein)
stoichiometry N [1]: 12 and 24

Substance: G20c portal protein L49C single mutant (natural protein)
stoichiometry N [2]: 12

Substance: G20c portal protein L49C/V325G/I328G conjugated with maleimide-porphyrin (natural protein)
stoichiometry N [3]: 12 and 24

Substance: G20c portal protein V325G mutant (natural protein)
stoichiometry N [5]: 12
